The record followed here is US10357539B2, “Use of peptides that block metadherin-SND1 interaction as treatment for cancer” (THE TRUSTEES OF PRINCETON UNIVERSITY, priority 2014, dated 2019).

In assay [1] the target is T1, SND1 (Homo sapiens, UniProt Q7KZF4).
T1 construct: 15 μg of His-SND1 (16-339) was added to the resin; made in house; host or cells: E. coli DH5α
T1 sequence (Q7KZF4 16-339): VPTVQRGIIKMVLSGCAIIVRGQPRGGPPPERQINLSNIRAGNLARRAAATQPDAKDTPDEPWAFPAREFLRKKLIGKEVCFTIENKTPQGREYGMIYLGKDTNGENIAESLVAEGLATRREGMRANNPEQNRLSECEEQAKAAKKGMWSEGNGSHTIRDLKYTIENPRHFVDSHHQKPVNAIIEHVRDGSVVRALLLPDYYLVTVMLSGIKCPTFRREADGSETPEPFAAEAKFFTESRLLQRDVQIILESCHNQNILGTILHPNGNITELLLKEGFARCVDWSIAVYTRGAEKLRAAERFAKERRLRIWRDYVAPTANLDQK
Kind of assay: GST-mediated pull-down of SND1 by GST-tagged MTDH fragments and mutants. The class given is binding. As to conditions: SND1 (16-339); GST-tagged MTDH (364-582). The source says: (§1) FIGS. 7A-E represents determination of key regions and residues mediating the MTDH-SND1 interaction. (FIG. 7A) Schematics of MTDH fragments and mutants with indicated SND1-binding capability. + indicates binding and − indicates no binding based on results shown below. Two putative nuclear localization signals are residues 432-451 for NLS2 and residues 561-580 for NLS3. In the enlarged view of the minimal binding region 386-407, 9 residues were targeted for mutagenesis in the current study. […] (FIG. 7B) Pulldown of His6-SND1AC by GST-tagged MTDH fragments with indicated boundaries. The bound proteins were examined by SDS-PAGE and visualized by Coomassie blue staining. (FIG. 7C) Pulldown of His6-SND1ΔC by GST-tagged WT or triple mutant MTDH fragments (364-582). For (FIG. 7B) and (FIG. 7C), 1/10 of the His6-SND1ΔC input was shown, and GST alone was used as a negative control. Representative results of 3 independent experiments are shown. (FIG. 7D, FIG. 7E) Lysates from HEK293T cells expressing the indicated ectopic human SND1, AGO2 or MTDH were immunoprecipitated with anti-Myc and immunoblotted with the indicated antibodies.
(§2) (FIG. 22A) In vitro pull-down of SND1 (16-339) by GST-tagged MTDH (364-582) harboring WT or mutant sequence. The proteins bound to GS4B were examined on SDS-PAGE and visualized by Coomassie blue staining. (FIG. 22B) In vitro pull-down of WT and mutant SND1 (16-339) by GST-tagged MTDH (364-582). The bound proteins were examined as in (FIG. 22A). For both (FIG. 22A) and (FIG. 22B), experiments were repeated three times; representative results are shown. The normalized percentage of binding was averaged from three experiments; mean±SEM was shown below the data. (FIG. 22C) HEK293T cells were transfected with human HA-SND1, WT Myc-MTDH or Myc-MTDH with indicated single point mutation. Lysates were immunoprecipitated with anti-Myc antibody and immunoblotted with the indicated antibodies. (FIG. 22D) HEK293T cells were transfected with human Myc-MTDH, WT HA-SND1 or mutant HA-SND1 with indicated single point mutations or deletions. Lysates were immunoprecipitated with anti-Myc and immunoblotted with the indicated antibodies.
GST-Mediated Pull-Down Assay: ˜20 μg of GST-MTDH (different truncation forms and site mutants) was bound to 10 μl of glutathione resin via GST tag. The resin was washed with 200 μl assay buffer (25 mM Tris, PH8.0, 150 mM NaCl, 3 mM DTT) three times to remove the excess unbound protein. 15 μg of His-SND1 (16-339) was added to the resin in a 100 μl volume suspended in the assay buffer with 2 mg/ml of BSA. The mixture was washed with 200 μl assay buffer twice before examined by SDS-PAGE, and visualized by Coomassie blue staining. The experiments were repeated 3 times and the ratio of SND1 associated with GST-MTDH was analyzed by ImageJ.

Assay [2] concerns the target T2, SND1 (Homo sapiens, UniProt Q7KZF4).
T2 construct: Full-length HA-tagged SND1 was co-expressed with full-length Myc-tagged wild-type (WT) or mutant MTDH in HEK293T cells; expressed in transfected cells; host or cells: HEK293T
T2 sequence (Q7KZF4 1-910): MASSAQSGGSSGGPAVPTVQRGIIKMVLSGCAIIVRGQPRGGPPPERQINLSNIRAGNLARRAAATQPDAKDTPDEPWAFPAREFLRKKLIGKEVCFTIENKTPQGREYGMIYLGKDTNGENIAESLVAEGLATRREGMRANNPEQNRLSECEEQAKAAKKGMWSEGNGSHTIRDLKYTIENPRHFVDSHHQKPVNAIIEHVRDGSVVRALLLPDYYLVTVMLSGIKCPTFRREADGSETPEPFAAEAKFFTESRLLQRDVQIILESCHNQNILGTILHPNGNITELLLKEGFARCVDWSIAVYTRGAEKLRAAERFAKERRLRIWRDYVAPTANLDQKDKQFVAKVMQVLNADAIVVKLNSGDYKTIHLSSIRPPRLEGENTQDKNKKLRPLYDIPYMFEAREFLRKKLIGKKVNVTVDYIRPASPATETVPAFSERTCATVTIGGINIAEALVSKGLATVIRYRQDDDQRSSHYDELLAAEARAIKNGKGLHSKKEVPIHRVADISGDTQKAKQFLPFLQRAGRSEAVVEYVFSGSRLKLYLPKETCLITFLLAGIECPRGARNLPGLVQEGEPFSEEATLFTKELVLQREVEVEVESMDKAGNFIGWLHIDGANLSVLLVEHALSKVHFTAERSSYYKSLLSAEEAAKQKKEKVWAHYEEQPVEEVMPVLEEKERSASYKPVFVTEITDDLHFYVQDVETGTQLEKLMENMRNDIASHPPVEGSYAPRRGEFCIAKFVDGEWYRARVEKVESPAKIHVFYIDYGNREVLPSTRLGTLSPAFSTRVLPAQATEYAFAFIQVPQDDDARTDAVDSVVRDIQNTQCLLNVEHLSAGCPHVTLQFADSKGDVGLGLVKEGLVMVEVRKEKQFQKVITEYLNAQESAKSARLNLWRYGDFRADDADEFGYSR
Kind of assay: Co-immunoprecipitation of full-length Myc-MTDH (WT or mutant) and HA-SND1 in HEK293T cells. The class given is cell-based. As to conditions: HEK293T cell lysates, immunoprecipitation and immunoblot.
Description: as §1, §2
Immunoprecipitation and western blot For immunoprecipitation (IP) experiments, cultured cells were washed in cold PBS and lysed in lysis buffer (20 mM Tris pH 7.4, 0.15 M NaCl, 1 mM EDTA, 1 mM EGTA, 1% Tx-100, 0.0025 M Na2P2O7, 1 mM α-glycerolphosphate, 1 mM Na3VO4, and 1 mM NaF) with an EDTA-free protease inhibitor mixture (Roche Applied Science) and PMSF. Cell lysates were then incubated on ice for 10 min, centrifuged, and precleared by incubating with protein A/G beads (Santa Cruz Biotechnology) for 1 h at 4° C. For IP bead preparation, 30 μl of protein A/G beads were incubated with 5 μg of antibodies for 2 h at 4° C. IPs were carried out for overnight at 4° C., and beads were centrifuged, washed and subsequently boiled for 5 min in SDS protein loading buffer to elute bound protein. IP lysates were subjected to western blotting with indicated antibodies.
Immunoprecipitation and western blot: For in vivo immunoprecipitation (IP) experiments, cultured cells were washed in cold PBS and lysed in lysis buffer (20 mM Tris pH 7.4, 0.15 M NaCl, 1 mM EDTA, 1 mM EGTA, 1% Tx-100, 0.0025 M Na2P2O7, 1 mM β-glycerolphosphate, 1 mM Na3VO4, and 1 mM NaF) with an EDTA-free protease inhibitor mixture (Roche Applied Science) and PMSF. Cell lysates were then incubated on ice for 10 min, centrifuged, and precleared by incubating with protein A/G beads (Santa Cruz Biotechnology) for 1 h at 4° C. For IP bead preparation, 30 μl of protein A/G beads were incubated with 5 μg of antibodies for 2 h at 4° C. IPs were carried out for overnight at 4° C., and beads were centrifuged, washed and subsequently boiled for 5 min in SDS protein loading buffer to elute bound protein. IP lysates were subjected to western blotting with indicated antibodies.
(In general: A western blot detects proteins with antibodies after separation by electrophoresis.)

B1: N395A: MTDH mutant N395A (protein)
chain: YQWDVSRNQPYIDDEWSGLNGLSSADPNSDWAAPAEEWGNWVDEERASLLKSQEPIPDDQKVSDDDKEKGEGALPTGKSKKKKKKKKKQGEDNSTAQDTEELEKEIREDLPVNTSKTRPKQEKAFSLKTISTSDPAEVLVKNSQPIKTLPPATSTEPSVILSKSDSDKSSSQVPPILQETDKSKSNTKQNSVPPSQTKSETSWESPKQIKKKKKARRET
modifications: left off: a dimerising Fc or GST
Take B1: the “SND1-binding of MTDH (364-582) point mutants, in vitro” value (“SND1-binding of MTDH” below) in assay [1] is “barely had any effect”.

B2: E400A: MTDH mutant E400A (protein)
chain: YQWDVSRNQPYIDDEWSGLNGLSSADPNSDWNAPAEAWGNWVDEERASLLKSQEPIPDDQKVSDDDKEKGEGALPTGKSKKKKKKKKKQGEDNSTAQDTEELEKEIREDLPVNTSKTRPKQEKAFSLKTISTSDPAEVLVKNSQPIKTLPPATSTEPSVILSKSDSDKSSSQVPPILQETDKSKSNTKQNSVPPSQTKSETSWESPKQIKKKKKARRET
modifications: left off: a dimerising Fc or GST
With B2, the “SND1-binding of MTDH” value in assay [1] is on record as “barely had any effect”.

B3: N403A: MTDH mutant N403A (protein)
chain: YQWDVSRNQPYIDDEWSGLNGLSSADPNSDWNAPAEEWGAWVDEERASLLKSQEPIPDDQKVSDDDKEKGEGALPTGKSKKKKKKKKKQGEDNSTAQDTEELEKEIREDLPVNTSKTRPKQEKAFSLKTISTSDPAEVLVKNSQPIKTLPPATSTEPSVILSKSDSDKSSSQVPPILQETDKSKSNTKQNSVPPSQTKSETSWESPKQIKKKKKARRET
modifications: left off: a dimerising Fc or GST
Take B3: in assay [1], the “SND1-binding of MTDH” value was “barely had any effect”.

B4: WT MTDH: full-length Myc-tagged wild-type human MTDH (protein, UniProt Q86UE4 1-582, looked up)
chain: MAARSWQDELAQQAEEGSARLREMLSVGLGFLRTELGLDLGLEPKRYPGWVILVGTGALGLLLLFLLGYGWAAACAGARKKRRSPPRKREEAAAVPAAAPDDLALLKNLRSEEQKKKNRKKLSEKPKPNGRTVEVAEGEAVRTPQSVTAKQPPEIDKKNEKSKKNKKKSKSDAKAVQNSSRHDGKEVDEGAWETKISHREKRQQRKRDKVLTDSGSLDSTIPGIENTITVTTEQLTTASFPVGSKKNKGDSHLNVQVSNFKSGKGDSTLQVSSGLNENLTVNGGGWNEKSVKLSSQISAGEEKWNSVSPASAGKRKTEPSAWSQDTGDANTNGKDWGRSWSDRSIFSGIGSTAEPVSQSTTSDYQWDVSRNQPYIDDEWSGLNGLSSADPNSDWNAPAEEWGNWVDEERASLLKSQEPIPDDQKVSDDDKEKGEGALPTGKSKKKKKKKKKQGEDNSTAQDTEELEKEIREDLPVNTSKTRPKQEKAFSLKTISTSDPAEVLVKNSQPIKTLPPATSTEPSVILSKSDSDKSSSQVPPILQETDKSKSNTKQNSVPPSQTKSETSWESPKQIKKKKKARRET
modifications: full-length Myc tag
For B4, in assay [2], the “interaction of full-length MTDH (WT or mutant) with HA-SND1” value is on record as “pulled down”.

B5: E400R: MTDH single point mutant E400R (protein, listed as Homo sapiens)
chain: MAARSWQDELAQQAEEGSARLREMLSVGLGFLRTELGLDLGLEPKRYPGWVILVGTGALGLLLLFLLGYGWAAACAGSRKKRRSPPRKREEAAAVPAAAPDDLALLKNLRSEEQKKKNRKKLSEKPKPNGRTVEVAEGEAVRTPQSVTAKQPPEIDKKNEKSKKNKKKSKSDAKAVQNSSRHDGKEVDEGAWETKISHREKRQQRKRDKVLTDSGSLDSTIPGIENTITVTTEQLTTASFPVGSKKNKGDSHLNVQVSNFKSGKGDSTLQVSSGLNENLTVNGGGWNEKSVKLSSQISAGEEKWNSVSPASAGKRKAEPSAWSQDTGDANTNGKDWGRSWSDRSIFSGIGSTAEPVSQSTTSDYQWDVSRNQPYIDDEWSGLNGLSSADPNSDWNAPAERWGNWVDEERASLLKSQEPIPDDQKVSDDDKEKGEGALPTGKSKKKKKKKKKQGEDNSTAQDTEELEKEIREDLPVNTSKTRPKQEKAFSLKTISTSDPAEVLVKNSQPIKTLPPATSTEPSVILSKSDSDKSSSQVPPILQETDKSKSNTKQNSVPPSQTKSETSWESPKQIKKKKKARRET
As to B5, the “SND1-binding of MTDH” value in assay [1] was “barely had any effect”.
